Data on three molecules can be found in publication PMC10167072, “Human granzyme B binds Plasmodium falciparum Hsp70-x and mediates antiplasmodial activity in vitro” (Cell Stress & Chaperones, 2023).

Assay [1] has as its target PfHsp70-xT, truncated PfHsp70-x lacking the C-terminal EEVN residues (P. falciparum). As to the kind of experiment: SPR; Hsp70 immobilised (100 µg/mL) on CMD 3D 500L chip, GrB analyte 0-2000 nM, 25 °C, PBS-Tween 20 with 20 mM EDTA pH 7.4, 25 μL/min, 1:1 Langmuir global fit; with ADP.
Assay [2] deals with full-length PfHsp70-xF (P. falciparum). The assay is described as above.
In assay [3] the target is PfHsp70-xT, truncated PfHsp70-x lacking the C-terminal EEVN residues (P. falciparum). As to the kind of experiment: SPR; Hsp70 immobilised (100 µg/mL) on CMD 3D 500L chip, GrB analyte 0-2000 nM, 25 °C, PBS-Tween 20 with 20 mM EDTA pH 7.4, 25 μL/min, 1:1 Langmuir global fit; with ATP. A general note: SPR reads the build-up and loss of mass on a sensor chip optically.
In assay [4] the target is full-length PfHsp70-xF (P. falciparum). The description is as above.
In assay [5] the target is PfHsp70-xT, truncated PfHsp70-x lacking the C-terminal EEVN residues (P. falciparum). As to the kind of experiment: SPR; Hsp70 immobilised (100 µg/mL) on CMD 3D 500L chip, GrB analyte 0-2000 nM, 25 °C, PBS-Tween 20 with 20 mM EDTA pH 7.4, 25 μL/min, 1:1 Langmuir global fit; no nucleotide.
In assay [6] the target is full-length PfHsp70-xF (P. falciparum). The description is as above.
A further assay concerns the target T1, human granzyme B (human, UniProt P10144 19-247).
T1 construct: granzyme B, human, serine protease; Bought protein; also called GrB; human GrB; source: bought: Hölzel Diagnostics, Cologne, Germany
As to the kind of experiment: SPR; GrB immobilised on the chip, TKD peptides injected as analytes at 0, 125, 500, 750 and 1000 nM, 25 °C, 1:1 Langmuir global fit; no nucleotide. Conditions: both partners purified.

Turning to “human granzyme B (from UniProt P10144 19-247) (enzyme)”, the Kd was 2820 nM in assay [1]; 1 nM in assay [2]; 4.2 µM in assay [3]; 1 nM in assay [4]; 2370 nM in assay [5]; 4 nM in assay [6]. The koff in assay [1] amounted to 2.24e-05 s⁻¹; in assay [2], 7.06e-06 s⁻¹; in assay [3], 0.000123 s⁻¹; in assay [4], 2.05e-05 s⁻¹; in assay [5], 0.000732 s⁻¹; in assay [6], 1.64e-05 s⁻¹. The kon was 2560 M⁻¹ s⁻¹ in assay [1]; 3850 M⁻¹ s⁻¹ in assay [2]; 5870 M⁻¹ s⁻¹ in assay [3]; 6990 M⁻¹ s⁻¹ in assay [4]; 2140 M⁻¹ s⁻¹ in assay [5]; 4350 M⁻¹ s⁻¹ in assay [6].

B1: TKD motif of hHsp70 (14-mer peptide) (peptide)
peptide: TKDNNLLGRFELSG
notes: 14-mer TKD motif of human Hsp70, amino acids 450-463; also called hHsp70 TKD motif
As for B1, in the assay with human granzyme B, the affinity, expressed as Kd, was 4 nM; the koff was 2.17e-05 s⁻¹; the kon stood at 2930 M⁻¹ s⁻¹.

B2: synthetic TKD peptide representing the 14-mer TKD motif of PfHsp70-x (peptide)
peptide: TKDNNLLGKFQLEG
notes: 14-mer TKD motif of PfHsp70-x, Plasmodium falciparum; also called PfHsp70-x TKD; source: synthetic peptide (Genscript, Piscataway, NJ, USA)
As for B2, in the assay with human granzyme B, the Kd amounted to 20 nM, the koff was 3.62e-05 s⁻¹ and the on-rate (kon) was 3130 M⁻¹ s⁻¹.

Usually Kd stands for the constant that tells how readily two partners part at equilibrium. Low readings indicate tighter binding, high ones weaker binding. As usually defined, the koff is the first-order rate constant of dissociation. A higher koff goes with fast dissociation. The kon is the rate constant with which the complex forms. A high value points to faster complex formation.
